This is an account of results in publication PMC8690526, “Expression, purification and characterisation of a human anti-CDK4 single-chain variable fragment antibody” (BMC Biotechnology, 2021).

What all share (conditions): both partners purified
In assay [1] the target is T1, recombinant human cyclin-dependent kinase 4 (Homo sapiens, UniProt P11802).
T1 construct: cyclin-dependent kinase 4 (CDK4), human, recombinant; also called rhCDK4; CDK4
The experiment in a line: ELISA; non-competitive, affinity constant; plates coated with rhCDK4 at 8.0, 4.0, 2.0, 1.0 μg/mL; serial dilutions of AK2 (8.000-0.125 μg/mL); Kaff = (n − 1) / (n [Ab′] − [Ab]), n = [Ag] / [Ag′]; triplicates.

For assay [2], the target named is T2, recombinant human prolyl hydroxylase 2 (Homo sapiens, UniProt Q9GZT9).
T2 construct: prolyl hydroxylase 2 (PHD2), human, recombinant; also called rhPHD2; PHD2
The experiment in a line: ELISA; non-competitive; plates coated with rhCDK4 or irrelevant proteins (rhPHD2, rhCOX-2, BSA); purified AK2 10 μg/mL in 3% non-fat milk in PBST, 2 h; detection by anti-V5 tag antibody and HRP-conjugated IgG, A492.

In another assay the target is T3, bovine serum albumin (Bos taurus, UniProt P02769).
T3 construct: serum albumin, bovine; also called BSA
The description is as above.

T1 sequence (P11802 whole entry): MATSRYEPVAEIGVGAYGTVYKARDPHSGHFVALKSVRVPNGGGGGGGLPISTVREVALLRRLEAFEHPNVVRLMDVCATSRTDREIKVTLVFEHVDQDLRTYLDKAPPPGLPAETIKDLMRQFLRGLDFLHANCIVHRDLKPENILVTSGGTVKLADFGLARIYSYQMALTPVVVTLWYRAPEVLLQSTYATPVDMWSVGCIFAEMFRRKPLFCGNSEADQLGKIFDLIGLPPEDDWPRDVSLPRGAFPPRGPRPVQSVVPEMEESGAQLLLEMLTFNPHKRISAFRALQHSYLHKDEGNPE
T3 sequence (P02769 25-607): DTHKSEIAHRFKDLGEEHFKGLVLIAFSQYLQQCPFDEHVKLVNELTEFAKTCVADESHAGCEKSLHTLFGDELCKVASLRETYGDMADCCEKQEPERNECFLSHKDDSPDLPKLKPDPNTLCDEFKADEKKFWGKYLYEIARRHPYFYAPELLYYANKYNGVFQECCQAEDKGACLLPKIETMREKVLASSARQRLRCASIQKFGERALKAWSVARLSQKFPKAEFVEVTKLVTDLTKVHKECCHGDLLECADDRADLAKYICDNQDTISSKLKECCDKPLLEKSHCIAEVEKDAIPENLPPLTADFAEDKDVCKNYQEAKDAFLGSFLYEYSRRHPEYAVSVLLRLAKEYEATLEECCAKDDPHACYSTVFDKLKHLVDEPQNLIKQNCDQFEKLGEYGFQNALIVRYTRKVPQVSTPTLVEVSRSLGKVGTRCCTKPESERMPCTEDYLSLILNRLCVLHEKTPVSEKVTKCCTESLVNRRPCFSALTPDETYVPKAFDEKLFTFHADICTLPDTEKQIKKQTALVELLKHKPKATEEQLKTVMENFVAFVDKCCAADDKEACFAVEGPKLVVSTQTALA
T2 sequence (Q9GZT9 whole entry): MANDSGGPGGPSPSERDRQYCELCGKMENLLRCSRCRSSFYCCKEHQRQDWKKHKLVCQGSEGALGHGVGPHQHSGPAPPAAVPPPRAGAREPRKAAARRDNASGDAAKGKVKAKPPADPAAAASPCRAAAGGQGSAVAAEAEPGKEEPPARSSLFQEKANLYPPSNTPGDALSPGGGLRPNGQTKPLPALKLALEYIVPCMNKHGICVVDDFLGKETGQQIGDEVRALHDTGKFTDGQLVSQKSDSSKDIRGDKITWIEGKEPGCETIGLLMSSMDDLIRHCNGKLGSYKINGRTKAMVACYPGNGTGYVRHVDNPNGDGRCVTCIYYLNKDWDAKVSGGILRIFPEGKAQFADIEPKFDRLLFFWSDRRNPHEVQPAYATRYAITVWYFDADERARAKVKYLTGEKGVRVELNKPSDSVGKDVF

B1: human anti-CDK4 single-chain variable fragment antibody AK2 (scFv, V domains shown)
VH: QVQLQESGGGLVQPGGSLRLSCAASGFTFSSYAMSWVRQAPGKGLEWVSAISGSGGSTYYADSVEGRFTISRDNSKNTLYLQMNSLRAEDTAVYYCARRLTGFDYWGQGTLVTVSS
VL: QSALTQPPSASGSPGQSVTISCTGTSSDVGGYNYVSWYQQHPGKAPKLMIYDVSKRPSGVSNRFSGSKSGNTASLTIFGLQAEDEADYYCSSYTSSSTLVFGGGTKLTVL
notes: AK2-VH; linker peptide between the variable regions; AK2-VL; A pelB leader stands upstream of AK2 in the phagemid; About 30 kD on SDS-PAGE; also called soluble AK2; purified AK2; source: E. coli HB2151 (AK2/HB2151), IPTG-induced, secreted into the culture supernatant; used as culture supernatant or purified (ammonium sulphate precipitation, Ni2+-NTA, PD-10 desalting); …
Turning to B1, the Ka in assay [1] is 2.48e+07 M⁻¹. The binding result (in assay [2]; with bovine serum albumin) was “no binding (tested: 10 μg/mL AK2)” throughout.
